Reference: the supplement of paper PMC12042874
± gives the uncertainty stated by the source.

Assay: amyloid nucleation score (Sup35N fusion, yeast selection) (log enrichment); library NNK2; higher = more nucleation; inactive = no reads after selection
How it was run: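 Sup35N was fused to peptides of 20 random codons and expressed in psi-negative yeast, which were induced with 100 μM copper sulfate for 24 hours and then grown on medium lacking adenine and uracil for 7 days at 30°C. Plasmid inserts from input and output were sequenced on Illumina. The nucleation score is the DiMSum log enrichment of output over input reads, centred on the mode score of non-aggregating sequences. Sequences with under 100 input reads were left out, and random libraries had three technical output replicates.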

| Substance | amyloid nucleation score |
| --- | --- |
| MELTSN | inactive |
| SEQWSQIYGAFSV | -1.32 ± 0.63 |
| LADTGA | 0.108 ± 0.42 |
| DTMRYLAGYLMACWPVEWSG | 0.685 ± 0.22 |
| DCWWYRLDSMYDLTYLGIGR | -1.03 ± 0.63 |
| PLVAMGMIINNI | -1.74 ± 0.48 |
| VMYMASSLHYTEEPSTSIMT | -0.243 ± 0.27 |
| LMYGKEWSMEQIVGTSTFGY | -1.36 ± 0.48 |
| QKGYN | inactive |
| GMWFPLWFVDSSNSMSLLCV | -1.59 ± 0.76 |
| SWNKGIHGGSTANCWFIVIK | 0.029 ± 0.61 |
| MVTYVMLSIPGFSSKYFFEG | -1.42 ± 1.1 |
| LANFGIIVWCCTCFYDD | 8.268 ± 0.039 |
| HSYFRFTPSFLAARSKYLRH | -0.498 ± 1.1 |
| LCWCWKSWHNARRWTSWRMF | 0.13 ± 0.56 |
| IPRIRR | 0.622 ± 0.66 |
| NELVSLQVIWIF | -0.098 ± 0.79 |
| ILYGWGRMMCRPLPQGYWMV | 0.449 ± 0.28 |
| SRFLCVKTTVVALI | 4.66 ± 0.047 |
| FILRHQFCLRTLIYGPSIFF | 7.465 ± 0.045 |
| GMWRIPYGWGPCYHSCVNQG | 4.958 ± 0.047 |
| CWCSLRRFTMLCNMRMNWDN | 1.91 ± 0.086 |

| Substance | amyloid nucleation score |
| --- | --- |
| SLWYFCRPIGGI | -0.391 ± 0.29 |
| AFNARWTEIDVPWRASPAHV | 0.657 ± 0.37 |
| ALENNIDPLGELASVPGCSG | 0.843 ± 0.27 |
| RMSVYNF | -0.177 ± 0.79 |
| HGYSWCCFHVGS | 8.926 ± 0.054 |
| DLDVN | -0.214 ± 0.56 |
| DAWRFSTNSLHSTAYYYYFL | 5.781 ± 0.043 |
| DSIYVL | -0.831 ± 0.44 |
| SCENTSSQELWYTCSIDLKL | 0.472 ± 0.66 |
| GLKDAIMYSVVTLIRYRQDD | -0.809 ± 0.56 |
| SSVHPPEPRINFFSSDGCIA | inactive |
| SWMIYLCRVGTITRMQDWLW | -0.445 ± 0.35 |
| VAQAQQQYP | 1.08 ± 0.53 |
| INNQGFIRPDNDSCYRFWIS | inactive |
| WHSVKMVNMFVGSKVISRSF | 5.42 ± 0.07 |
| RLFYRYWCL | -0.797 ± 0.35 |
| VATLMIKFR | 4.116 ± 0.036 |
| NLLLFWSSHLSNECGSNSLG | 4.66 ± 0.1 |
| VSGCRGVMLI | -0.816 ± 0.54 |
| MYSLSAAFT | inactive |
| SLMDLDFPLTSR | -0.334 ± 0.61 |
| YYLSNPRGVHISIYREHNMS | 6.392 ± 0.043 |

| Substance | amyloid nucleation score |
| --- | --- |
| TWRYRKMFASASFA | 0.33 ± 0.16 |
| GDFDKDV | -0.188 ± 0.5 |
| CVAVDDD | 0.624 ± 0.46 |
| FLCLLDRVIMTLFFRIAL | 0.453 ± 0.65 |
| PLLFTWAVLINALWVKSTPG | -0.19 ± 1 |
| GRSFILTRLRFIFPVYTVC | inactive |
| RNRCSSDFGSGRINVDGFNM | inactive |
| FPLDIKGKWDVGNMEGKVVE | 0.486 ± 0.41 |
| LRFVVMVHLE | -0.072 ± 0.79 |
| VNRAR | -0.545 ± 0.63 |
| VSNTEMQTVHVPAGLLPSGF | -0.27 ± 1.1 |
| VLEITLCG | 0.834 ± 0.46 |
| RLHGGHLRRM | 0.902 ± 0.21 |
| IFDYSV | -0.874 ± 0.55 |
| LYRLGFEAHRVYKQLKIIGG | 0.764 ± 0.4 |
| NVLRMMC | -0.286 ± 0.27 |
| FNNMWYSFKQSLSACSVGRR | inactive |
| LVGYLSSVELDYRWENC | -0.026 ± 0.32 |
| TWTLQQSVLVSEKNAKGRVT | 3.98 ± 0.078 |
| LSSGEYVSSGMRGTSCEKSK | -0.007 ± 0.79 |
| FALREYGYLSSYYFCMGGPT | 3.56 ± 0.094 |
| CISWL | inactive |

| Substance | amyloid nucleation score |
| --- | --- |
| TFIHN | -0.161 ± 0.19 |
| IGVRPCTMRC | 0.23 ± 0.29 |
| KFRNCVRKDFLSMHHFSVVF | -0.666 ± 0.45 |
| HLFCTMHSQTLEDYIKSLVC | -0.087 ± 1 |
| MYREGSTVGLYMFPYCKDQS | 0.237 ± 0.4 |
| NTGSLRYWHCVSSGNSTTGR | inactive |
| FHIDTIRTVRLAWYTTEHWQ | 5.34 ± 0.07 |
| NSYFGRAFNVSMPYKLRWKF | -1.41 ± 1.1 |
| GLYEYPHGKTIMVDWMAGRL | 1.17 ± 0.28 |
| GVCLSGACAGISGGADYSGR | 0.332 ± 0.22 |
| TFVGVLNQTNH | 2.73 ± 0.13 |
| SLSHRADACVTS | -0.647 ± 0.64 |
| VCFNWRHYATRLSDERWLRS | 1.1 ± 0.52 |
| LYEMVVM | 0.05 ± 1 |
| KMPGFLVCW | inactive |
| FHWYGTVVIYVYLLADVYRC | -0.153 ± 0.36 |
| SYSQGD | 0.674 ± 0.53 |
| VYSHILDYFACISYAITLVD | 2.91 ± 0.13 |
| IFEVRLPQELSSYSHFGGGC | 0.706 ± 0.74 |
| FYLMPDCLWGGKSSWSFLHL | -0.873 ± 0.5 |
| LSYSVNWWPRSGWSYYVNEF | -0.176 ± 1.1 |
